This data set deals with the molecule itself. Description: crystal structure; microbatch crystallization of His-SUMO tagged P. shigelloides NagK (5 mg/ml), Morpheus I screen with matrix microseeding; apo structure PDB 7P7I, 2 protein monomers in the a.u.

B1: N-acetylglucosamine kinase (NagK) from Plesiomonas shigelloides (enzyme)
chain: MYYGFDIGGTKIEFGAFDADLVRVARERVATPTESYAAFLDAIVTLVNNADAEFGVKGTVGIGIPGIADVETGKLLTSNIPAAMGHTLQRDLEERLQRPVKIENDANCFALSEAWDEDLRGEPSVLGLILGTGVGGGLIFNGKVHSGRANIAGEIGHTRLPYDALKLLGMENAPIFPCGCKNSGCIDNYLSGRGFEQLYDHYFSEKLSAPEIIAHYEQGERRAVQHVERFMELLAICLANIFTCLDPHVVVLGGGLSNFELIYQELPKRLPAHLLHVAKLPKIIKARHGDAGGVRGAAFLNL
notes: N-acetylglucosamine kinase NagK of Plesiomonas shigelloides, codon-optimized nagK gene in pOPINS3C; also called PsNagK; P. shigelloides NagK; source: E. coli BL21 (DE3), purified (HisTrap, Superdex 200 size exclusion); not shown: polyhistidine, N-terminal, kept; SUMO, N-terminal, kept
On to B1, for which the “stoichiometry N” value amounted to 2.

One may read the stoichiometry N as a count of units in the complex or per binding partner.
